Experimental data from publication PMC12060060 (Investigative Ophthalmology & Visual Science, 2025).

Molecular target: the molecule itself
Assay: dynamic light scattering

B1: Q147E deamidated αA-crystallin (recombinant human) (natural protein, UniProt P02489 1-173, looked up)
chain: MDVTIQHPWFKRTLGPFYPSRLFDQFFGEGLFEYDLLPFLSSTISPYYRQSLFRTVLDSGISEVRSDRDKFVIFLDVKHFSPEDLTVKVQDDFVEIHGKHNERQDDHGYISREFHRRYRLPSNVDQSALSCSLSADGMLTFCGPKIETGLDATHAERAIPVSREEKPTSAPSS
binding result: binds
